# Assay results published in patent US10227388B2, “Peptides and combination of peptides for use in immunotherapy against non-small cell lung cancer and other cancers” (immatics biotechnologies GmbH, priority 2015, dated 2019).
# Biological target: HLA-A*02:01 (Homo sapiens, UniProt P04439, D140Y/D185E/D98H/E176V/E277Q/G131W/G231S/I119V/I121R/I166T/I218V/L300P/L318F/N151K/N90K/P208A/P217A/Q86G/Q94H/R138H/R169H/T345S)
# Experiment: MHC binding assay (UV-ligand exchange, ELISA, peptide exchange yield)
# Settings: binding of HLA-class I restricted peptides to HLA-A*02:01
# Outline: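 Exchange yield was quantified as stabilized β2m-containing complex: monomers diluted 100-fold bound to streptavidin-coated wells, probed with HRP-conjugated anti-β2m, read at 450 nm after TMB. Complexes had been generated by UV cleavage of a photolabile ligand and replacement with the candidate peptide.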
row,"Peptide exchange (MHC class I binding score, peptide exchange yield)",Substance
1,″+++″ (≥50% = +++),401 (ILLDDTGLAYI; listed as Homo sapiens) [compound 401]
2,″+++″ (≥50% = +++),407 (YLMDLINFL; listed as Homo sapiens) [compound 407]
3,″++″ (≥20% = ++),408 (VLDDSIYLV; listed as Homo sapiens) [compound 408]
4,″++″ (≥20% = ++),409 (LLDAMNYHL; listed as Homo sapiens) [compound 409]
5,″++″ (≥20% = ++),412 (YLDDLNEGVYI; listed as Homo sapiens) [compound 412]
6,″+++″ (≥50% = +++),427 (ALLPLSPYL; listed as Homo sapiens) [compound 427]
7,″+++″ (≥50% = +++),430 (HLYSSIEHLTT; listed as Homo sapiens) [compound 430]
8,″++″ (≥20% = ++),432 (TLIEESAKV; listed as Homo sapiens) [compound 432]
9,″++++″ (≥75% = ++++),438 (KLLPLAGLYL; listed as Homo sapiens) [compound 438]
10,″++″ (≥20% = ++),440 (ALADGVTMQV; listed as Homo sapiens) [compound 440]

# The remaining lines, values behind:
row,Substance,"Peptide exchange (MHC class I binding score, peptide exchange yield)"
1,400 (SLLTEQDLWTV; listed as Homo sapiens) [compound 400],″++″ (≥20% = ++)
2,402 (VLFSGALLGL; listed as Homo sapiens) [compound 402],″++″ (≥20% = ++)
3,403 (KLYDRILRV; listed as Homo sapiens) [compound 403],″++″ (≥20% = ++)
4,405 (ALYDVFLEV; listed as Homo sapiens) [compound 405],″++″ (≥20% = ++)
5,426 (RLADKSVLV; listed as Homo sapiens) [compound 426],″+++″ (≥50% = +++)
6,428 (KLGHTDILVGV; listed as Homo sapiens) [compound 428],″++″ (≥20% = ++)
7,429 (GLVNDLARV; listed as Homo sapiens) [compound 429],″++″ (≥20% = ++)
8,431 (SLVNVVPKL; listed as Homo sapiens) [compound 431],″++″ (≥20% = ++)
9,433 (AMLNEPWAV; listed as Homo sapiens) [compound 433],″+++″ (≥50% = +++)
10,434 (KVSNSGITRV; listed as Homo sapiens) [compound 434],″++″ (≥20% = ++)
11,436 (HLAEVSAEV; listed as Homo sapiens) [compound 436],″+++″ (≥50% = +++)
12,437 (SMAPGLVIQAV; listed as Homo sapiens) [compound 437],″+++″ (≥50% = +++)
13,439 (YLLQEIYGI; listed as Homo sapiens) [compound 439],″+++″ (≥50% = +++)
14,441 (ALLENPKMEL; listed as Homo sapiens) [compound 441],″+++″ (≥50% = +++)
15,442 (GLLGGGGVLGV; listed as Homo sapiens) [compound 442],″+++″ (≥50% = +++)
16,444 (GLLRDEALAEV; listed as Homo sapiens) [compound 444],″+++″ (≥50% = +++)
17,446 (QLIPALAKV; listed as Homo sapiens) [compound 446],″+++″ (≥50% = +++)
